# In article PMC7781312 (bioRxiv, 2021):
# B1: B6 monoclonal antibody (recombinant IgG with human constant regions) (antibody, V domains shown)
# VH: EVQLQQSGPVLVKPGASVRMSCKASGYTITDYYLNWVKQSHGKSLEWLGVLNPYSGGSLYSQTFKGKATLTVDRSSSTAYLELNSLTSEDSAVYYCARQLGRGNGLDYWGQGTSVTVSS
# VL: NIMMTQSPSSLAVSAGEKVTMSCKSSQSVLHSSDQKNYLAWYQQKPGQSPKLLIYWASTRESGVPDRFTGSGSGTDFTLTISSVQAEDLAVYFCHQYLSSYTFGGGTKLEIK
# Target: prefusion-stabilized SARS-CoV S ectodomain trimer (SARS-CoV 2P S) (SARS-CoV Urbani (AAP13441), UniProt P59594, stabilised)
# Experiment: BLI
binder,measurement,value
B1,binding result,binds
